# Results published in patent US20110033448.
# T1: hCAP18 (propeptide of LL-37), P49913
# T1 chain: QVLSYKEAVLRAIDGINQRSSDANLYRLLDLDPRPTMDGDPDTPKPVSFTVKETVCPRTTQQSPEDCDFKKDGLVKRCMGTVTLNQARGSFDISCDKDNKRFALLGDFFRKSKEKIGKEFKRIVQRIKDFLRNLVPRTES
# B1: Proteinase 3 (protein)
# chain: IVGGHEAQPHSRPYMASLQMRGNPGSHFCGGTLIHPSFVLTAAHCLRDIPQRLVNVVLGAHNVRTQEPTQQHFSVAQVFLNNYDAENKLNDVLLIQLSSPANLSASVATVQLPQQDQPVPHGTQCLAMGWGRVGAHDPPAQVLQELNVTVVTFFCRPHNICTFVPRRKAGICFGDSGGPLICDGIIQGIDSFVIWGCATRLFPDFFTRVALYVDWIRSTLR
# Target: T1, hCAP18 (propeptide of LL-37), P49913
protein,measurement,value
B1,Western blot of cleavage of the 4 kD LL-37 peptide from hCAP18 in supernatants of activated neutrophils,the cleavage of the 4 kD LL-37 peptide can be blocked by pretreatment of neutrophils with the proteinase 3 inhibitors
